Test results taken from patent publication US6218168A, “Process for preparing O-acetylserine, L-cysteine and L-cysteine-related products” (Consortium fur elektrochemische Inudstrie GmbH, priority 1995, dated 2001).
Where a chain is given by its changes, count along the chain named.

What was measured:
[1] = target: T1, serine acetyltransferase of cysteine-prototrophic revertant (Escherichia coli, UniProt P0A9D4, M256I); conditions: versus wild-type; cited from earlier work
T1 construct: host or cells: cysteine-prototrophic revertant of a cysteine-auxotrophic strain mutagenized with ethyl methanesulfonate (Denk and Bock 1987)
T1 sequence (P0A9D4 whole entry M256I): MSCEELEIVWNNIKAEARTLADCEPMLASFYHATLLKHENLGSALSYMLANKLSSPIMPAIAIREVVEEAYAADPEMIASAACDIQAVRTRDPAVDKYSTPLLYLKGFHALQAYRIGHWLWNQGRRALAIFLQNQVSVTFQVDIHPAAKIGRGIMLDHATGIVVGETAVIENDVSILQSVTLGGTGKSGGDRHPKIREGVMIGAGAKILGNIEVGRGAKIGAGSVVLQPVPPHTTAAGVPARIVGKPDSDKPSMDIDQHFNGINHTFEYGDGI

[2] = target: T1, serine acetyltransferase of cysteine-prototrophic revertant; assay: Literature: end product inhibition of serine acetyltransferase from a cysteine-prototrophic revertant; type: biochemical
Experimental: According to the literature reference mentioned, the feedback resistance of this mutant is elevated 10-fold. Consequently, the Ki of this mutant is approx. 0.01 mM, when comparison is made with the wild-type form.

[3] = target: wild-type form of serine acetyltransferase; conditions: 0.1 mM acetyl-coenzyme A and 1 mM L-serine; competitive; read-out: inhibitor constant Ki; cited from earlier work
[4] = test system: serine acetyltransferase; assay: Serine acetyltransferase enzyme activity test with and without L-cysteine (inhibitor constant Ki, specific activity); type: biochemical, E. coli; conditions: for Ki: inhibitor L-cysteine
Description: Any method which enables the activity of the serine acetyltransferase to be determined in the presence of cysteine can be used for determining the cysteine sensitivity of this enzyme. For example, the serine acetyltransferase activity can be determined using the method described by Kredich and Tomkins, J. Biol. Chem. 241: 4955-4965 (1966). In this test, the enzyme test mixture contains the substrate, L-serine, and the cofactor, acetyl-coenzyme A. The reaction is started by adding enzyme and monitored, in a spectro photometer, by observing the decrease in absorption at 232 nm which is elicited by the cleavage of the thioester bond in the acetyl-coenzyme A.
The above-described enzyme test is suitable for determining the cysteine sensitivity of any serine acetyltransferase enzyme, including the enzymes which have a modified carboxyl terminus. Inhibition of the serine acetyltransferase activity is tested in the presence of differing concentrations of L-cysteine in the reaction mixture. The catalytic activity of the different serine acetyltransferase enzymes is determined in the presence and absence of L-cysteine, and the inhibitor constant, Ki, is ascertained from this (Kredich and Tomkins, J. Biol. Chem., 241, 4955-4965 (1966)).
In order to investigate the biochemical basis of the cysteine secretion of the revertants, the activity of the serine acetyltransferase was determined in vitro, and the ability of cysteine to inhibit the enzyme was measured. For the determination, use was made of S30 extracts (cell homogenates centrifuged at 30,000 g and 4° C. for 20 minutes) of the selected revertants, the starting strains and the comparison strain, E. coli W3110 (ATTC 27325).
The biochemical parameters such as enzyme activity and inhibitor constant, Ki, were determined in an analogous manner to that described in Example 1.
The plasmids resulting from this cloning were designated pACYC184/cysE-Del in accordance with the extent of their deletion (cf. FIG. 9 for the plasmid map). Determination of the enzymic activity and the inhibitor constant, Ki, and also the cross-feeding test, were carried out in analogy with the description in Example 1. DNA sequence analysis was used to confirm that the deletions had been correctly introduced.
Determination of the enzymic activity and of the inhibitor constant Ki, and also the cross-feeding test, were carried out in analogy with the description in Example 1.

[5] = test system: production strain JM15; assay: Cysteine production in 1 L fermenter, JM15 with plasmid-encoded cysE alleles; type: cell-based, E. coli; conditions: 48 h, JM15 transformed with plasmid
Experimental: Influence of different, plasmid-encoded cysE alleles on the production of L-cysteine or products derived from L-cysteine in a 1 L fermenter using the host strain JM15 20 mL of LB medium (1% tryptone, 0.5% yeast extract, 0.5% NaCl) contained in a 100 mL Erlenmeyer flask were inoculated with a single colony of the production strain JM15 (CGSC#5042) which had been transformed with the respective cysE plasmid.
After having been incubated for 7 hours in a bacterial shaker (30° C., 150 rpm), the respective preliminary cultures were transferred to 100 mL of SM1 medium. The SM1 medium contained 5 g/L glucose, 5 mg/L vitamin B1, 3 g/l KH2 PO4, 12 g/L K2 HPO4, 0.3 g/L MgSO4×7 H2 O, 0.1 g/L NaCl, 5 g/L (NH4)2 SO4, 14.7 mg/L CaCl2×2 H2 O, 2 mg/L FeSO4×2 H2 O, 1 g/L Na3 citrate×2 H2 O, 1 ml/L trace element solution and 25 mg/L tetracycline. The trace element solution was composed of 0.15 g/L Na2 MoO4×2 H2 O, 2.5 g/L H3 BO3, 0.7 g/L CoCl2×6 H2 O, 0.25 g/L CuSO4×5 H2 O, 1.6 g/L MnCl2×4 H2 O and 0.3 g/L ZnSO4×7 H2 O. The cultures were shaken in 1 L Erlenmeyer flasks at 30° C. and at 150 rpm for 17 h. After this incubation, the OD600 was between 4 and 5. The subsequent fermentation was carried out in Braun-Melsungen BIOSTAT M research fermenters. A culturing vessel having a total volume of 2 L was used.
The fermentation medium contained 15 g/L glucose, 5 g/L NaCl, 0.3 g/L MgSO4×7 H2 O, 15 mg/L CaCl2×2 H2 O, 75 mg/L FeSO4×7 H2 O, 1 g/L Na3 citrate×2 H2 O, 1.5 g/L KH2 PO4, 1 mL of trace element solution (see above), 5 mg/L vitamin B1, 2.5 g/L yeast extract (Difco), 2.5 g/L tryptone (Difco) and 25 mg/L tetracycline.
The glucose concentration in the fermenter was initially adjusted to a value of 15 g/L by pumping in a 700 g/L (w/v) (sterilized) glucose solution, and the pH was adjusted to 7.0 by pumping in a 25% NH4 OH solution. After an OD600 of 10 had been reached, 300 mg per hour were supplied from a sterile 100 g/L (w/v) stock solution of thiosulfate. 100 mL of preliminary culture were pumped into the fermenter vessel for the inoculation. The starting volume was approximately 1 L. The cultures were initially stirred at 400 rpm and aerated with 1.5 vvm of compressed air which had been sterilized by passing through a sterile filter. The fermentation was carried out at a temperature of 30° C.
The pH was maintained at a value of 7.0 by means of automatic correction with 25% NH4 OH. The oxygen saturation in the fermentation broth had at no time during the fermentation to fall below 20%; the stirring speed was used to ensure this. The glucose content of the nutrient solution, the optical density and the cysteine content were determined at two- to three-hourly intervals. The glucose content was determined enzymically using a glucose analyzer from YSI. The concentration of the glucose was adjusted to between 10 and 20 g/L by means of continuously feeding in this compound.
The content of cysteine in the medium was determined […] from the cell-free super-natant of the sample using the method of Gaitonde, M. K. (1967), Biochem. J. 104, 627-633.
The fermentation was terminated after 44-50 h.

[6] = test system: JM15attλ::cysE strains; assay: Cysteine production in 1 L fermenter, chromosomally encoded cysE alleles; type: cell-based, E. coli; conditions: single chromosomal copy
Experimental: For the purpose of being integrated into the chromosomal attachment site (attλ), the cysE alleles cysEIV, cysEX and cysEXI were cloned into the plasmid pRS551 (Simons et al., 1987, Gene 53: 85-96). For this, each cysE allele was amplified by PCR from the corresponding cysE plasmid. The oligonucleotides which were used, i.e. cysE-fwl and cysE-revl, are described in Example 1. The amplification was carried out as described in Example 3. The resulting fragments were cleaved with EcoRI/BamHI, purified through an agarose gel and ligated into vector pRS551 which had been cleaved with EcoRI and BamHI. This afforded the vector pRS551-based recombinant plasmids pRScysEIV, X and XI.
A heterogeneous lambda lysate, which contained recombinant cysE allele-carrying λRS45 derivatives in addition to λRS45 phages, was produced in vivo by homologous recombination by means of preparing a plate lysate on a pRScysE-carrying recA^+ strain (e.g. YMC9, ATCC 3397) using the λRS45 phage (Simons et al., 1987, Gene 53: 85-96).
The cysE strain JM15, which was infected with the heterogeneous lambda lysate and subsequently plated on kanamycin-containing (25 mg/L) LB plates, was used for selecting for the recombinant RS45 derivatives. The lysogenic, kanamycin-resistant clones which were obtained were then tested for their ability to grow on minimal medium plates without cysteine. A clone which was in each case cysteine-prototrophic was selected and used for preparing a homogeneous cysE λ lysate (by means of UV induction, Simons et al., 1987, Gene 53: 85-96).
The JM15 stain was infected with these homogeneous cysE λ lysates which were obtained in each case. The resulting JM15attλ::cysE strains were cultured as described in Example 6. Instead of tetracycline, the respective media in each case contained 25 mg of kanamycin per L as the selection agent.

[7] = Table 1b, carboxyterminal deletions
[8] = Table 1a, 1 mM L-serine, 0.1 mM acetyl-CoA
[9] = Table 1a, serine acetyltransferase activity
[10] = Table 2, alleles from chemical mutagenesis
[11] = Table 4, alleles from site-specific mutagenesis

N[C@@H](CS)C(=O)O [L-cysteine]
feedback resistance elevated [1]: 10 fold | Ki [2]: ~10 µM | Ki [3]: 1.1 µM

B1: cysE-Del255: carboxyterminal deletion of 18 amino acids, terminal Asp255 (protein, UniProt P0A9D4 1-255, looked up, fragment)
chain: MSCEELEIVWNNIKAEARTLADCEPMLASFYHATLLKHENLGSALSYMLANKLSSPIMPAIAIREVVEEAYAADPEMIASAACDIQAVRTRDPAVDKYSTPLLYLKGFHALQAYRIGHWLWNQGRRALAIFLQNQVSVTFQVDIHPAAKIGRGIMLDHATGIVVGETAVIENDVSILQSVTLGGTGKSGGDRHPKIREGVMIGAGAKILGNIEVGRGAKIGAGSVVLQPVPPHTTAAGVPARIVGKPDSDKPSMD
spec. act. [4, 7]: 0.624 μmol/min x mg | Ki [4, 7]: 30 µM | Ki ([4]; Table 6, carboxyterminal deletions): 30 µM | Cysteine yield [5]: 3.9 g/L

B2: cysEX: mutant Thr167->Ala167 (protein, UniProt P0A9D4 1-273, looked up, variant T167A)
Serine acetyltransferase: MSCEELEIVWNNIKAEARTLADCEPMLASFYHATLLKHENLGSALSYMLANKLSSPIMPAIAIREVVEEAYAADPEMIASAACDIQAVRTRDPAVDKYSTPLLYLKGFHALQAYRIGHWLWNQGRRALAIFLQNQVSVTFQVDIHPAAKIGRGIMLDHATGIVVGEAAVIENDVSILQSVTLGGTGKSGGDRHPKIREGVMIGAGAKILGNIEVGRGAKIGAGSVVLQPVPPHTTAAGVPARIVGKPDSDKPSMDMDQHFNGINHTFEYGDGI
Ki [4, 8]: 50 µM | spec. act. [4, 9]: 0.156 µmol/min/mg | Ki [4, 10]: 50 µM | Cysteine yield [5]: 3.4 g/L | yields of cysteine [6]: 1.8 g/L

B3: cysEXXIII: triple mutant Ala167, Val237, Ser238 (protein, UniProt P0A9D4 1-273, looked up, variant T167A A237V G238S)
Serine acetyltransferase: B2 Serine acetyltransferase with A237V, G238S
Ki [4, 8]: 2300 µM | spec. act. [4, 9]: 0.085 µmol/min/mg | Ki [4, 11]: 2300 µM | Cysteine yield [5]: 2.7 g/L

B4: cysEVI: double mutant Ser238, Ile256 (protein, UniProt P0A9D4 1-273, looked up, variant G238S M256I)
Serine acetyltransferase: B2 Serine acetyltransferase with A167T, G238S, M256I
Ki [4, 8]: 10 µM | spec. act. [4, 9]: 0.075 µmol/min/mg | Ki [4, 11]: 10 µM | Cysteine yield [5]: 1.4 g/L

B5: cysEIV: double mutant Ala237->Val237, Gly238->Ser238 (protein, UniProt P0A9D4 1-273, looked up, variant A237V G238S)
Serine acetyltransferase: B2 Serine acetyltransferase with A167T, A237V, G238S
Ki [4, 8]: 40 µM | spec. act. [4, 9]: 0.170 µmol/min/mg | Ki [4, 11]: 40 µM | Cysteine yield [5]: 1.6 g/L | yields of cysteine [6]: 0.5 g/L

B6: cysEV: triple mutant Val237, Ser238, Ile256 (protein, UniProt P0A9D4 1-273, looked up, variant A237V G238S M256I)
Serine acetyltransferase: B2 Serine acetyltransferase with A167T, A237V, G238S, M256I
Ki [4, 8]: 10 µM | spec. act. [4, 9]: 0.246 µmol/min/mg | Ki [4, 11]: 10 µM | Cysteine yield [5]: 1.3 g/L

B7: cysEXII: triple mutant Lys97->Gln97, Gly238->Ser238, Phe267->Leu267 (protein, UniProt P0A9D4 1-273, looked up, variant K97Q G238S F267L)
Serine acetyltransferase: B2 Serine acetyltransferase with K97Q, A167T, G238S, F267L
Ki [4, 8]: 40 µM | spec. act. [4, 9]: 0.254 µmol/min/mg | Ki [4, 10]: 40 µM | Cysteine yield [5]: 1.2 g/L
